This passage reports stoichiometry N, Kd and dH results from PMC5462532.

Usually stoichiometry N stands for a count of units in the complex or per binding partner. In general, Kd refers to the free concentration of one partner at which half of the binding sites on the other are occupied at equilibrium, for simple one-to-one binding. Read a low Kd as a tighter complex.

For assay [1], the target named is HHARI of the HHARI/UbcH7 complex analysed by SEC-MALS (human) (UniProt Q9Y4X5). The assay can be described thus: SEC-MALS; HHARI/UbcH7 complex at 1.5 mg/ml in 25 mM MOPS, 150 mM NaCl, pH 7.5; Superose 6 Increase 3.2/300; room temperature. Background: In gel filtration, larger molecules generally elute earlier.
For assay [2], the target named is UbcH7 (C17S, C86K, C137S)∼Ub conjugate (for ITC) (human) (UniProt P68036). The assay can be described thus: ITC; 250-300 μM RING1 constructs in the syringe, 25-30 μM E2 or E2∼Ub in the cell; 293 K; 25 mM Hepes pH 7.5, 150 mM NaCl, 0.5 mM TCEP; 1:1 fit; repeated twice, averages.
The target in assay [3] is UbcH7 (wild type, for ITC) (human) (UniProt P68036). The description is as above.

As for “UbcH7 of the HHARI/UbcH7 complex analysed by SEC-MALS (from UniProt P68036 1-154) (enzyme)”, in assay [1], the stoichiometry N was 1.

In assay [2], “HHARI RING1 (aa 177-270), wild type (from UniProt Q9Y4X5 177-270) (domain or fragment)” came in with an equilibrium dissociation constant (Kd) of 116 nM, a dH of 3.7 kcal/mol and a stoichiometry N of 1. Also, in assay [3], the equilibrium dissociation constant (Kd) came to 294 nM, the dH amounted to 4.3 kcal/mol and the stoichiometry N is 1.
